These results are taken from IntAct's records for PubMed 8848052.

Sequences and labels used below:
B1: mRNA export factor GLE1 (Saccharomyces cerevisiae), Q12315 (parent)
chain: MRFVFDEVFNSDTDSPEFEETCSTTSSTSSQCPTPEPSPAIKLPSFTKVGTKKLVNESVVILDPALENALRDLNLQSKLIPINEPIVAASSIIVPHSTNMPLPRASHSSLLDNAKNSNATAPLLEAIEESFQRKMQNLVLANQKEIQSIRENKRRVEEQRKRKEEEERKRKEAEEKAKREQELLRQKKDEEERKRKEAEAKLAQQKQEEERKKIEEQNEKERQLKKEHEAKLLQQKDKLGKAVTNFDKISKMFWHYKDKIAQIKQDIVLPIKKADVNVRNLLSRHKRKINPKFGQLTNSNQQLFKIQNELTQLINDTKGDSLAYHWILNFIAKAVVHQAETEVRVKPESALPLGKLTLYLLVQFPELQELFMARLVKKCPFVIGFTCEIDTEKGRQNMGWKRNNENKWEDNTSYDERMGGILSLFAIITRLQLPQEFITTTSHPFPIALSWHILARICNTPLNLITNTHFVILGSWWDAAAVQFLQAYGNQASKLLILIGEELTSRMAEKKYVGAARLRILLEAWQNNNMESFPEMSP
partner: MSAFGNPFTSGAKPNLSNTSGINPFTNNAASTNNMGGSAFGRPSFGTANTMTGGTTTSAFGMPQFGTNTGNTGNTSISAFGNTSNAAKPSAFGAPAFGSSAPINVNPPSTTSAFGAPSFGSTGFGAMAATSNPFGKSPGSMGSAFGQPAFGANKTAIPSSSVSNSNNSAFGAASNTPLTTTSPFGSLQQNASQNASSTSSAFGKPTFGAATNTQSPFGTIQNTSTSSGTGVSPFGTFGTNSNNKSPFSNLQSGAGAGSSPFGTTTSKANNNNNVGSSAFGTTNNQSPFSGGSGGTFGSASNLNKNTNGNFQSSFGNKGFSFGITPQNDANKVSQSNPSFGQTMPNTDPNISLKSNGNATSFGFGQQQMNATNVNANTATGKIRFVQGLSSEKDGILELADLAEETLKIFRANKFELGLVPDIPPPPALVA

The variants in this assay derive from B1. The following applies: with nup42_yeast NUP42, P49686.
As for L356A, the “effect of a mutation on the interaction” value is recorded as “decreasing interaction”.
